Assays:
[1] = biological target: T1, synthetic peptide HK2p01 (SRFKVWWAAG)
T1 chain: SRFKVWWAAG

[2] = biological target: T2, synthetic peptide HK2p02 (AARRPFPAPS)
T2 chain: AARRPFPAPS

[3] = biological target: T3, synthetic peptide HK2p03 (PARRPFPVTA)
T3 chain: PARRPFPVTA

Measured: enzyme activity (chromogenic substrate)

B1: human trypsin 3 (protein)
chain: IVGGYTCEENSLPYQVSLNSGSHFCGGSLISEQWVVSAAHCYKTRIQVRLGEHNIKVLEGNEQFINAAKIIRHPKYNRDTLDNDIMLIKLSSPAVINARVSTISLPTTPPAAGTECLISGWGNTLSFGADYPDELKCLDAPVLTQAECKASYPGKITNSMFCVGFLEGGKDSCQRDSGGPVVCNGQLQGVVSWGHGCAWKNRPGVYTKVYNYVDWIKDTIAANS
showed no inhibition: [1] | [2] | [3]

B2: human plasmin (protein)
chain: KVYLSECKTGNGKNYRGTMSKTKNGITCQKWSSTSPHRPRFSPATHPSEGLEENYCRNPDNDPQGPWCYTTDPEKRYDYCDILECEEECMHCSGENYDGKISKTMSGLECQAWDSQSPHAHGYIPSKFPNKNLKKNYCRNPDRELRPWCFTTDPNKRWELCDIPRCTTPPPSSGPTYQCLKGTGENYRGNVAVTVSGHTCQHWSAQTPHTHNRTPENFPCKNLDENYCRNPDGKRAPWCHTTNSQVRWEYCKIPSCDSSPVSTEQLAPTAPPELTPVVQDCYHGDGQSYRGTSSTTTTGKKCQSWSSMTPHRHQKTPENYPNAGLTMNYCRNPDADKGPWCFTTDPSVRWEYCNLKKCSGTEASVVAPPPVVLLPDVETPSEEDCMFGNGKGYRGKRATTVTGTPCQDWAAQEPHRHSIFTPETNPRAGLEKNYCRNPDGDVGGPWCYTTNPRKLYDYCDVPQCAAPSFDCGKPQVEPKKCPGRVVGGCVAHPHSWPWQVSLRTRFGMHFCGGTLISPEWVLTAAHCLEKSPRPSSYKVILGAHQEVNLEPHVQEIEVSRLFLEPTRKDIALLKLSSPAVITDKVIPACLPSPNYVVADRTECFITGWGETQGTFGAGLLKEAQLPVIENKVCNRYEFLNGRVQSTELCAGHLAGGTDSCQGDSGGPLVCFEKDKYILQGVTSWGLGCARPNKPGVYVRVSRFVTWIEGVMRNN
showed no inhibition: [1] | [2] | [3]

B3: human trypsin 2 (protein)
chain: IVGGYICEENSVPYQVSLNSGYHFCGGSLISEQWVVSAGHCYKSRIQVRLGEHNIEVLEGNEQFINAAKIIRHPKYNSRTLDNDILLIKLSSPAVINSRVSAISLPTAPPAAGTESLISGWGNTLSSGADYPDELQCLDAPVLSQAECEASYPGKITNNMFCVGFLEGGKDSCQGDSGGPVVSNGELQGIVSWGYGCAQKNRPGVYTKVYNYVDWIKDTIAANS
showed no inhibition: [1] | [2] | [3]
